Reference: patent US20260356924 (published 2026)

How the values were obtained:
iPHF = iPHF (human, UniProt P10636); test: SPR
ePHF = ePHF (human, UniProt P10636); test: ELISA
Sequence of ePHF (P10636 2-758): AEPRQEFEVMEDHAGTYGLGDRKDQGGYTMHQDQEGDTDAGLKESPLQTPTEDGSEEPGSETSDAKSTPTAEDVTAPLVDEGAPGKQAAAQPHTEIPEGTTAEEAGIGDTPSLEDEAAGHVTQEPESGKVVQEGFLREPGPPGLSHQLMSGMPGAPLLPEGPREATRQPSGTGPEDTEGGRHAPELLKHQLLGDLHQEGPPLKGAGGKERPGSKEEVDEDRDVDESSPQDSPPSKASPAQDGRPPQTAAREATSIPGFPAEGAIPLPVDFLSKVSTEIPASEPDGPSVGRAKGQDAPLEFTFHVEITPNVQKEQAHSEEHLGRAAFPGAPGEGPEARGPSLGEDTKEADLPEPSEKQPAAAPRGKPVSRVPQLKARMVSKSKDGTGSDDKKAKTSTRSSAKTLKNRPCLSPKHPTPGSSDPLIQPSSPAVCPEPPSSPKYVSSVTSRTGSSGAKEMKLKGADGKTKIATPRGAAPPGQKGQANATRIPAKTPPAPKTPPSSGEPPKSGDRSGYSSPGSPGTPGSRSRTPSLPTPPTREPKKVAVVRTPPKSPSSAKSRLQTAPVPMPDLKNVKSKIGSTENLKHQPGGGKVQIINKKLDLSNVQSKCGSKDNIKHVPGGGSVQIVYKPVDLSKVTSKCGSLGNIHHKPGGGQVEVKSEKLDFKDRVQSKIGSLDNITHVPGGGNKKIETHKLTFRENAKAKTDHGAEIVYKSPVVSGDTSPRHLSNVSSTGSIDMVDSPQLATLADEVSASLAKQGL

Sequence of iPHF (P10636 2-758): as above

Row | Kd (iPHF) | EC50 (ePHF) | Binder
1 | 0.0334 nM |  | Ab7 (antibody, V domains shown, immunopurified paired helical filament tau, hyperphosphorylated) VH: QVQLVQSGAEVKKPGASVKVSCKASGFTFTRYWMHWVRERPGHGLEWIGNINPNNGGTDFNEKFKNRVTMTVHKSISTAYMELSSLRSDDSAVYYCARGTGTGAMDYWGQGTLVTVSS VL: DVVMTQSPLSLPVTLGQPASISCRSSQSLVHNNGITYLYWYQQRPGQSPRLLIYRVSNRFSGVPDRFSGSGSGTDFTLKISRVEAEDVGVYYCFQGTHVPRTFGQGTKLEIK
2 |  | 0.085 nM | Ab1 (antibody, V domains shown, enriched paired helical filament tau, hyperphosphorylated) VH: QVQLVQSGAEVKKSGASVKVSCKASGFTFTRYWMHWVRQAPGQGLEWIGNINPNNGGTDFNEKFKNRVTLIRDTSTTTVFIQLTSLTSEDSAVYYCARGTGTGAMDYWGQGTLVTVSS VL: DIVMTQSPLSLSVTPGQPASISCRSSQSLVHNNGITYLYWYLQKPGQSPQLLIYRVSNRFSGVPDRFSGSGSGTDFTLKISRVEAEDVGVYYCFQGTHVPRTFGQGTKVEIK
3 | 0.0162 nM |  | hV0022 control (antibody, V domains shown, immunopurified paired helical filament tau, hyperphosphorylated) VH: QVQLQQPGTELVKPGSSVNLSCKASGFTFTRYWMHWVKERPGHGLEWIGNINPNNGGTDFNEKFKNKATLTVHKSSTTVFIQLSSLTSEDSAVYYCARGTGTGAMDYWGQGTSVTVSS VL: DVVMTQTPLSLPVSLGDQASISCRSSQSLVHNNGITYLYWYLQKPGQSPKLLIYRVSNRFSGVPDRFGGSGSGTDFTLKISRVEAEDLGVYFCFQGTHVPRTFGGGTKLEIK
4 |  | 0.095 nM | Ab3 (antibody, V domains shown, enriched paired helical filament tau, hyperphosphorylated) VH: EVQLVQSGAEVKKPGSSVKVSCKASGFTFTRYWMHWVKERPGHGLEWIGNINPNNGGTDFNEKFKNRVTMTVHKSITTAYMELSRLTSDDSAVYYCARGTGTGAMDYWGQGTLVSVSS VL: DVVMTQSPLSLPVTLGQPASISCRSSQSLVHNNGITYLYWYQQRPGQSPRLLIYRVSNRFSGVPDRFSGSGSGTDFTLKISRVEAEDVGVYYCFQGTHVPRTFGQGTKLEIK
5 | 0.0249 nM |  | Ab11 (antibody, V domains shown, immunopurified paired helical filament tau, hyperphosphorylated) VH: QVQLVQSGAEVKKPGASVKVSCKASGFTFTRYWMHWVKERPGQGLEWMGNINPNNGGTDFNEKFKNRVTMTVHKSTSTVFIQLSSLRSEDTAVYYCARGTGTGAMDYWGQGTSVTVSS VL: DVVMTQSPLSLPVTLGQPASISCRSSQSLVHNNGITYLYWYQQRPGQSPRLLIYRVSNRFSGVPDRFSGSGSGTDFTLKISRVEAEDVGVYYCFQGTHVPRTFGQGTKLEIK
6 |  | 0.14 nM | Ab10 (antibody, V domains shown, enriched paired helical filament tau, hyperphosphorylated) VH: EVQLVQSGAEVKKPGSSVKVSCKASGFTFTRYWMHWVKERPGHGLEWIGNINPNNGGTDFNEKFKNRVTMTVHKSITTAYMELSRLTSDDSAVYYCARGTGTGAMDYWGQGTLVSVSS VL: DIVMTQTPLSSPVTLGQPASISCRSSQSLVHNNGITYLYWYQQRPGQPPRLLIYRVSNRFSGVPDRFSGSGAGTDFTLKINRVEAEDVGVYFCFQGTHVPRTFGQGTKLEIK
7 | 0.044 nM |  | Ab9 (antibody, V domains shown, immunopurified paired helical filament tau, hyperphosphorylated) VH: EVQLVQSGAEVKKPGSSVKVSCKASGFTFTRYWMHWVKERPGHGLEWIGNINPNNGGTDFNEKFKNRVTMTVHKSITTAYMELSRLTSDDSAVYYCARGTGTGAMDYWGQGTLVSVSS VL: DIVMTQSPLSLSVTPGQPASISCRSSQSLVHNNGITYLYWYLQKPGQSPQLLIYRVSNRFSGVPDRFSGSGSGTDFTLKISRVEAEDVGVYYCFQGTHVPRTFGQGTKVEIK
8 |  | 0.13 nM | Ab7 (antibody, V domains shown, enriched paired helical filament tau, hyperphosphorylated) VH: QVQLVQSGAEVKKPGASVKVSCKASGFTFTRYWMHWVRERPGHGLEWIGNINPNNGGTDFNEKFKNRVTMTVHKSISTAYMELSSLRSDDSAVYYCARGTGTGAMDYWGQGTLVTVSS VL: DVVMTQSPLSLPVTLGQPASISCRSSQSLVHNNGITYLYWYQQRPGQSPRLLIYRVSNRFSGVPDRFSGSGSGTDFTLKISRVEAEDVGVYYCFQGTHVPRTFGQGTKLEIK
9 |  | 0.15 nM | Ab2 (antibody, V domains shown, enriched paired helical filament tau, hyperphosphorylated) VH: QVQLVESGAEVKKPGASVKVSCKASGFTFTRYWMHWVKERPGHGLEWMGNINPNNGGTDFNEKFKNRVTITVHKSASTAYMELSSLRSEDTAVYYCARGTGTGAMDYWGQGTTVTVSS VL: DVVMTQSPLSLPVTLGQPASISCRSSQSLVHNNGITYLYWYQQRPGQSPRLLIYRVSNRFSGVPDRFSGSGSGTDFTLKISRVEAEDVGVYYCFQGTHVPRTFGQGTKLEIK
10 |  | 0.1 nM | Ab9 (antibody, V domains shown, enriched paired helical filament tau, hyperphosphorylated) VH: EVQLVQSGAEVKKPGSSVKVSCKASGFTFTRYWMHWVKERPGHGLEWIGNINPNNGGTDFNEKFKNRVTMTVHKSITTAYMELSRLTSDDSAVYYCARGTGTGAMDYWGQGTLVSVSS VL: DIVMTQSPLSLSVTPGQPASISCRSSQSLVHNNGITYLYWYLQKPGQSPQLLIYRVSNRFSGVPDRFSGSGSGTDFTLKISRVEAEDVGVYYCFQGTHVPRTFGQGTKVEIK
11 | 0.0496 nM |  | Ab8 (antibody, V domains shown, immunopurified paired helical filament tau, hyperphosphorylated) VH: QVQLVQSGAEVKKSGASVKVSCKASGFTFTRYWMHWVRQAPGQGLEWIGNINPNNGGTDFNEKFKNRVTLIRDTSTTTVFIQLTSLTSEDSAVYYCARGTGTGAMDYWGQGTLVTVSS VL: DVVMTQSPLSLPVTLGQPASISCRSSQSLVHNNGITYLYWYQQRPGQSPRLLIYRVSNRFSGVPDRFSGSGSGTDFTLKISRVEAEDVGVYYCFQGTHVPRTFGQGTKLEIK
12 |  | 0.16 nM | Ab6 (antibody, V domains shown, enriched paired helical filament tau, hyperphosphorylated) VH: QVQLVESGAEVKKPGASVKVSCKASGFTFTRYWMHWVKERPGHGLEWMGNINPNNGGTDFNEKFKNRVTITVHKSASTAYMELSSLRSEDTAVYYCARGTGTGAMDYWGQGTTVTVSS VL: DIVMTQSPLSLSVTPGQPASISCRSSQSLVHNNGITYLYWYLQKPGQSPQLLIYRVSNRFSGVPDRFSGSGSGTDFTLKISRVEAEDVGVYYCFQGTHVPRTFGQGTKVEIK
13 |  | 0.16 nM | Ab11 (antibody, V domains shown, enriched paired helical filament tau, hyperphosphorylated) VH: QVQLVQSGAEVKKPGASVKVSCKASGFTFTRYWMHWVKERPGQGLEWMGNINPNNGGTDFNEKFKNRVTMTVHKSTSTVFIQLSSLRSEDTAVYYCARGTGTGAMDYWGQGTSVTVSS VL: DVVMTQSPLSLPVTLGQPASISCRSSQSLVHNNGITYLYWYQQRPGQSPRLLIYRVSNRFSGVPDRFSGSGSGTDFTLKISRVEAEDVGVYYCFQGTHVPRTFGQGTKLEIK
14 |  | 0.17 nM | Ab8 (antibody, V domains shown, enriched paired helical filament tau, hyperphosphorylated) VH: QVQLVQSGAEVKKSGASVKVSCKASGFTFTRYWMHWVRQAPGQGLEWIGNINPNNGGTDFNEKFKNRVTLIRDTSTTTVFIQLTSLTSEDSAVYYCARGTGTGAMDYWGQGTLVTVSS VL: DVVMTQSPLSLPVTLGQPASISCRSSQSLVHNNGITYLYWYQQRPGQSPRLLIYRVSNRFSGVPDRFSGSGSGTDFTLKISRVEAEDVGVYYCFQGTHVPRTFGQGTKLEIK
15 | 0.0391 nM |  | Ab6 (antibody, V domains shown, immunopurified paired helical filament tau, hyperphosphorylated) VH: QVQLVESGAEVKKPGASVKVSCKASGFTFTRYWMHWVKERPGHGLEWMGNINPNNGGTDFNEKFKNRVTITVHKSASTAYMELSSLRSEDTAVYYCARGTGTGAMDYWGQGTTVTVSS VL: DIVMTQSPLSLSVTPGQPASISCRSSQSLVHNNGITYLYWYLQKPGQSPQLLIYRVSNRFSGVPDRFSGSGSGTDFTLKISRVEAEDVGVYYCFQGTHVPRTFGQGTKVEIK
16 | 0.0248 nM |  | Ab5 (antibody, V domains shown, immunopurified paired helical filament tau, hyperphosphorylated) VH: QVQLVQSGAEVKKPGASVKVSCKASGFTFTRYWMHWVKERPGQGLEWMGNINPNNGGTDFNEKFKNRVTMTVHKSTSTVFIQLSSLRSEDTAVYYCARGTGTGAMDYWGQGTSVTVSS VL: DIVMTQTPLSSPVTLGQPASISCRSSQSLVHNNGITYLYWYQQRPGQPPRLLIYRVSNRFSGVPDRFSGSGAGTDFTLKINRVEAEDVGVYFCFQGTHVPRTFGQGTKLEIK
17 | 0.0434 nM |  | Ab1 (antibody, V domains shown, immunopurified paired helical filament tau, hyperphosphorylated) VH: QVQLVQSGAEVKKSGASVKVSCKASGFTFTRYWMHWVRQAPGQGLEWIGNINPNNGGTDFNEKFKNRVTLIRDTSTTTVFIQLTSLTSEDSAVYYCARGTGTGAMDYWGQGTLVTVSS VL: DIVMTQSPLSLSVTPGQPASISCRSSQSLVHNNGITYLYWYLQKPGQSPQLLIYRVSNRFSGVPDRFSGSGSGTDFTLKISRVEAEDVGVYYCFQGTHVPRTFGQGTKVEIK
18 | 0.0353 nM |  | Ab4 (antibody, V domains shown, immunopurified paired helical filament tau, hyperphosphorylated) VH: QVQLVQSGAEVKKPGASVKVSCKASGFTFTRYWMHWVKERPGQGLEWMGNINPNNGGTDFNEKFKNRVTMTVHKSTSTVFIQLSSLRSEDTAVYYCARGTGTGAMDYWGQGTSVTVSS VL: DIVMTQSPLSLSVTPGQPASISCRSSQSLVHNNGITYLYWYLQKPGQSPQLLIYRVSNRFSGVPDRFSGSGSGTDFTLKISRVEAEDVGVYYCFQGTHVPRTFGQGTKVEIK
19 | 0.0325 nM |  | Ab3 (antibody, V domains shown, immunopurified paired helical filament tau, hyperphosphorylated) VH: EVQLVQSGAEVKKPGSSVKVSCKASGFTFTRYWMHWVKERPGHGLEWIGNINPNNGGTDFNEKFKNRVTMTVHKSITTAYMELSRLTSDDSAVYYCARGTGTGAMDYWGQGTLVSVSS VL: DVVMTQSPLSLPVTLGQPASISCRSSQSLVHNNGITYLYWYQQRPGQSPRLLIYRVSNRFSGVPDRFSGSGSGTDFTLKISRVEAEDVGVYYCFQGTHVPRTFGQGTKLEIK
20 | 0.0293 nM |  | Ab2 (antibody, V domains shown, immunopurified paired helical filament tau, hyperphosphorylated) VH: QVQLVESGAEVKKPGASVKVSCKASGFTFTRYWMHWVKERPGHGLEWMGNINPNNGGTDFNEKFKNRVTITVHKSASTAYMELSSLRSEDTAVYYCARGTGTGAMDYWGQGTTVTVSS VL: DVVMTQSPLSLPVTLGQPASISCRSSQSLVHNNGITYLYWYQQRPGQSPRLLIYRVSNRFSGVPDRFSGSGSGTDFTLKISRVEAEDVGVYYCFQGTHVPRTFGQGTKLEIK
21 | 0.0304 nM |  | Ab10 (antibody, V domains shown, immunopurified paired helical filament tau, hyperphosphorylated) VH: EVQLVQSGAEVKKPGSSVKVSCKASGFTFTRYWMHWVKERPGHGLEWIGNINPNNGGTDFNEKFKNRVTMTVHKSITTAYMELSRLTSDDSAVYYCARGTGTGAMDYWGQGTLVSVSS VL: DIVMTQTPLSSPVTLGQPASISCRSSQSLVHNNGITYLYWYQQRPGQPPRLLIYRVSNRFSGVPDRFSGSGAGTDFTLKINRVEAEDVGVYFCFQGTHVPRTFGQGTKLEIK
22 | 0.0165 nM |  | V0022 control (antibody, V domains shown, immunopurified paired helical filament tau, hyperphosphorylated) VH: QVQLQQPGTELVKPGSSVNLSCKASGFTFTRYWMHWVKERPGHGLEWIGNINPNNGGTDFNEKFKNKATLTVHKSSTTVFIQLSSLTSEDSAVYYCARGTGTGAMDYWGQGTSVTVSS VL: DVVMTQTPLSLPVSLGDQASISCRSSQSLVHNNGITYLYWYLQKPGQSPKLLIYRVSNRFSGVPDRFGGSGSGTDFTLKISRVEAEDLGVYFCFQGTHVPRTFGGGTKLEIK
